Measurements published in patent US20260204353A1.

Target: - (UniProt P08069)
Assay: ELISA
Details: scFv

Substance: Teprotumumab scFv mutant into which the consensus sequences were introduced (H16G, L60D, and L85D)
- EC50: 24 nM
